{"source": "patent US9688743B2", "about": "“Optical biosensors” (Carnegie Mellon University, priority 2007, dated 2017)", "key": {"[1]": {"test": "Spectral characterization of yeast surface displayed FBPs (TO1-2p)", "format": "physicochemical", "conditions": "cell surface; for excitation maximum: free dye absorbance 504 nm", "protocol": "10^6 cells in 200 μl yeast buffer were assayed with 100-1000 nM MG-2p or TO1-2p. Spectra were corrected by subtraction of fluorescence of control cells not expressing scFvs."}, "[2]": {"test": "Fluorogenic enhancement of purified FBP (TO1-2p)", "format": "biochemical", "conditions": "direct measurement", "protocol": "(§1) Fluorogenic enhancement of HL4-MG, L5-MG and HL1.0.1-TO1 was measured in 96 well microplates on a Tecan Safire2 reader by comparison of the fluorescence of 500 nM free fluorogen with the fluorescence of a mixture of 500 nM fluorogen and 2 μM respective FBP. After a 1 hour incubation to allow complex formation, fluorescence was measured at the excitation and emission maxima of the fluorogen/FBP complexes. Fluorescence of yeast PBS buffer was subtracted from all samples. Fluorescence readings were stable for at least 16 hours.\n(§2) Extended gain settings were used to increase numerical accuracy. For HL4-MG and L5MG, the differences in fluorescence between complexes and free dye exceeded the extended gain range of the instrument, so intermediate concentrations of Cy5 were also measured to allow interpolation between the extreme values. Two independent experiments, each with triplicate measurements, were carried out for each of the 3 FBPS; standard deviations for averaged values of FBPS, free fluorogen or PBS were less than 5%. The fold-enhancement values for HL4-MG and L5-MG were respectively multiplied by 1.35 and 1.20 to correct for partial complexation."}, "[3]": {"test": "Fluorogen binding affinity to yeast surface displayed FBPs (TO1-2p)", "protocol": "Cell surface KD values were determined on Prism Graphpad Prism 4.0 software by non-linear regression analysis using a one-site binding algorithm for saturation binding: Y═Bmax*X═(KD+X) where X is the concentration of fluorogen. Determination of Fluorogen Binding Affinity to Soluble FBPs"}, "[4]": {"test": "Fluorogen binding affinity to soluble FBPs (TO1-2p)", "conditions": "soluble FBP, in words", "protocol": "(§3) Binding affinity to soluble scFvs was determined by monitoring fluorogenic signal under conditions of ligand depletion using a homogenous 96 well microplate assay similar to above. 1 nM HL1.0.1-TO1, 10 nM L5-MG and 100 nM HL4-MG were each assayed with a 0.1 to 1000 nM range of fluorogen. Fluorescence of each FBP+dye sample was corrected by subtracting the fluorescence of a dye only sample. KD values were determined by non-linear regression using Graphpad Prism 4.0 and a ligand depletion algorithm. Y═(X+KD+R−√{square root over ((−X−KD−R)^2−4*X*R)})÷2 where X is the concentration of fluorogen, and R is the concentration of FBP/fluorogencomplex at the observed or extrapolated plateau at maximum fluorescence. Determination of Quantum Yields"}, "[5]": {"test": "Quantum yield and absorbance of FBP/TO1-2p complex", "format": "physicochemical", "protocol": "(§4) FIG. 15 provides graphs illustrating absorbance of fluorogens and FBP/fluorogen complexes. Shown are samples used in quantum yield determinations. The absorbance of FBP/fluorogen complexes is obtained on a dual beam PerkinElmer Lambda 45 spectrophotometer using an equal concentration of FBP without fluorogen as the reference.\n(§5) Quantum yields were determined by comparing integrated spectra of FBP/fluorogen complexes with those of reference dyes. Corrected emission spectra were taken at concentrations of FBP/fluorogen complex and reference dyes giving similar absorbances at the excitation wavelength, and the intensity integral computed. Provisional quantum yields were calculated by the relation:\n(§6) [formula] where (phi is the quantum yield, I is the integrated intensity, A is the absorbance, η is the refractive index, and R designates the reference dye. Provisional quantum yields were adjusted to 1:1 complexation by using the solution KD of the complex to quantify the proportional occupancy at these concentrations (using Graphpad Prism 4.0 and the above ligand depletion algorithm).\nA cyanic dye, Cy5.18 in PBS and Di-S—C2-(5) in MeOH were used as reference fluorophores for the determination of HL4-MG/MG-2p and L5-MG/MG-2p quantum yields. […] These differences in absorbance magnitude underrepresent actual differences because of incomplete complexation at these concentrations. […]"}, "[6]": {"test": "Fluorogen binding affinity to soluble FBPs (MG-2p)", "conditions": "soluble versus yeast surface displayed FBP", "protocol": "as §3"}, "[7]": {"test": "Fluorogenic enhancement of purified FBP (MG-2p)", "format": "biochemical", "conditions": "HL4-MG/MG-2p complex", "protocol": "as §1, §2"}, "[8]": {"test": "Quantum yield and absorbance of FBP/MG-2p complex", "format": "physicochemical", "protocol": "as §4, §5, §6\nA cyanic dye, Cy5.18 in PBS and Di-S—C2-(5) in MeOH were used as reference fluorophores for the determination of HL4-MG/MG-2p and L5-MG/MG-2p quantum yields. 2 μM scFv and 440 nM MG-2p were employed; emission spectra of respective complexes were taken in duplicate. […] These differences in absorbance magnitude underrepresent actual differences because of incomplete complexation at these concentrations. HL4MG/MG-2p and L5-MG/MG-2p quantum yields were respectively multiplied by 1.35 and 1.20 to correct for incomplete complexation. Fluorescein in 0.1 N NaOH and Rhodamine-6-G in MeOH were used as reference fluorophores for the determination of the quantum yield of HL1.0.1-TO1/TO12p. At the employed concentrations of 2 μM scFv and 520 nM TO1-2p, virtually complete complexation is expected, and no correction was used. Only slight changes in absorbance magnitude were noted."}, "[9]": {"test": "Cell surface complementation, fluorescence spectrometer on cell suspensions", "format": "cell-based, yeast", "conditions": "for Fluorescence: 1 μM TO1-2P, excitation 506 nm, emission 610 nm, corrected for buffer+dye and no-dye samples", "protocol": "(§7) In the following experiments three classes of yeast cells were generated by molecular biology methods known in the art. One class of yeast expressed only the heavy chain of the scFv on the surface. A second class expressed only the light chain of the scFv on its surface. The third class expressed both the heavy and light chains on the surface. When the fluorescent reporter TO1 was added independently to solutions containing the three classes of yeast cells, only the third class that expressed both heavy and light chains at a high surface density produced a fluorescence increase, as shown below. Specifically, two vectors, pPNL6 and pPNL6URA3 were prepared, where the TRP1 gene of pPNL6 was replaced with the URA3 gene of S. cerevisiae. This approach allowed selection for both plasmids in a single cell. Fragments carrying scFv1, scFv1 HO (heavy only chain), or scFv1 LO (light only chain) were cloned into each of the two vectors.\nJAR200 yeast cells were transformed with each single plasmid as well as both scFv1 HO (PNL6)+scFv1 LO (PNL6URA3) or both scFv1 HO (PNL6URA3)+scFv1 LO (PNL6). Analysis by FACS and TECAN followed induction of the cells. In both cases, 1 μM TO1-2P was used.\nIn the second approach, a fluorescence spectrometer was used to quantify the fluorescence from suspensions of cells. The fluorescence excitation wavelength was 506 nm and the emission wavelength was 610 nm. Values presented below are corrected from raw data by subtracting out the values for (buffer+dye) and induced (no dye) samples. They were then corrected for the per cent of the population that was induced, as determined by the flow cytometry analysis."}, "[10]": {"test": "Cell surface complementation, flow cytometry of TO1-2p fluorescence", "format": "cell-based", "conditions": "1 μM TO1-2P, induced JAR200 yeast, emission at 530", "protocol": "as §7, with “vectors. […]” for “vectors.”\nIn the first approach, flow cytometry was used to assay cellular fluorescence of the three classes of yeast in the presence and absence of TO 1. The population of induced cells was analyzed by measuring fluorescence emitted at 685 from a signal caused by protein labeled by anti-C-myc Alexa 647. […] For cells that expressed full length fragments the TO1-2p fluorescence was observed as emission at 530."}}, "data": [{"molecule": "HL1.0.1-TO1: affinity matured fluorogen binding scFv, SEQ ID NO: 7 (protein, scFv sequence) scFv: QVQLVESEAEVKKPGSSVKVSCKASGGTFSSYAISWVRQAPGQGLEWMGGTIPIFGTADYAQEFQGRVTITTDESTSTAYMELSGLRSEDTAVYYCVLLGTTMVTGHYFDYWGQGTLVTVSSGILGSGGGGSGGGGSGGGGSNFMLTQPPSASGTPGQSVTISCSGSGSNIGNNKVNWYQQLPGTAPKLLIYSNNQRPSGVPDRFSGSKSGTSASLAISGLQSEDEADYYCAAWDDGLSGYVFGTGTKLTVL", "values": [{"measurement": "emission maxima", "setting": "[1]", "result": 530, "unit": "nm"}, {"measurement": "excitation maximum", "setting": "[1]", "result": 509, "unit": "nm"}, {"measurement": "fluorescence increase of TO1-2p upon binding", "setting": "[2]", "result": "about 2,600 fold"}, {"measurement": "Kd", "setting": "[3]; yeast cell surface displayed FBP, fluorogen TO1-2p", "result": "~3", "unit": "nM"}, {"measurement": "KD in solution", "setting": "[4]", "result": "very similar to that observed on the cell surface"}, {"measurement": "extinction coefficient", "setting": "[5]", "result": "60,000 M^−1 cm^−1"}, {"measurement": "quantum yield", "setting": "[5]", "result": 0.47}]}, {"molecule": "L5-MG: malachite green binding light chain only FBP, SEQ ID NO: 13 (antibody, scFv sequence, (GILEQKLISEEDL at end of sequence is derived from a vector)) VL: SASTGSFDSWGQGTLVTVSSGILGSGGGGSGGGGSGGGGSQAVVTQEPSVTVSPGGTVILTCGSSTGAVTSGHYANWFQQKPGQAPRALIFETDKKYSWTPGRFSGSLLGAKAALTISDAQPEDEAEYYCLLSDVDGYLFGGGTQLTVLSGILEQKLISEEDL", "values": [{"measurement": "reduced affinity for MG-2p in solution as compared to surface display", "setting": "[6]", "result": 265, "unit": "fold"}]}, {"molecule": "HL4-MG: malachite green binding scFv, SEQ ID NO: 11 (protein, scFv sequence, (GILEQKLISEEDL at end of sequence is derived from a vector)) scFv: QVQLVESEGGLVQPGGSLRLSCAASGFTFSSYEMNWVRQAPGKGLEWVSRIDGDGSSTNYADSVKGRFTISRDNAKSTLYLQMNSLRAEDTAVYYCTRARYFGSVSPYGMDVWGQGTTVTVSSGILGSGGGGSGGGGSGGGGSDIRVTQSPSSVSASVGDRVTISCRASQGIATWLGWYQQKPGKPPQLLIYSASTLQTGVPSRFSGSGSGTDFTLTISSLQPEDVATYYCQEGSTFPLTFGGGTKVDIKSGILEQKLISEEDL", "values": [{"measurement": "fluorescence enhancement as compared to free fluorogen", "setting": "[7]", "result": "about 18,000 fold"}, {"measurement": "reduced affinity for MG-2p in solution as compared to surface display", "setting": "[6]", "result": 185, "unit": "fold"}, {"measurement": "absorbance of FBP/fluorogen relative to free MG-2p", "setting": "[8]", "result": "more than 1.4 fold"}, {"measurement": "extinction coefficient", "setting": "[8]", "result": "about 105,000 M^−1 cm^−1"}, {"measurement": "quantum yield", "setting": "[8]", "result": 0.17}]}, {"molecule": "HO PNL6: scFv1 heavy chain only, vector pPNL6, displayed on yeast (antibody, V domains shown) VH: QVQLVESEAEVKKPGSSVKVSCKASGGTFSSYAISWVRQAPGQGLEWMGGIIPIFGTANYAQKFQGRVTITADESTSTAYMELSSLRSEDTAVYYCVLLDTTMVTGYYFDYWGQGTLVTVSS", "values": [{"measurement": "Fluorescence", "setting": "[9]", "result": 135}, {"measurement": "F/ (% Pop IND)", "setting": "[9]; fluorescence corrected for per cent of population induced", "result": 160}, {"measurement": "MEAN 530 SIGNAL", "setting": "[10]", "result": 88}]}, {"molecule": "HO PNL6URA3: scFv1 heavy chain only, vector pPNL6URA3, displayed on yeast (antibody, V domains shown) VH: QVQLVESEAEVKKPGSSVKVSCKASGGTFSSYAISWVRQAPGQGLEWMGGIIPIFGTANYAQKFQGRVTITADESTSTAYMELSSLRSEDTAVYYCVLLDTTMVTGYYFDYWGQGTLVTVSS", "values": [{"measurement": "Fluorescence", "setting": "[9]", "result": "−605"}, {"measurement": "MEAN 530 SIGNAL", "setting": "[10]", "result": 82}]}, {"molecule": "HL2-TO1: fluorogen binding scFv, SEQ ID NO: 5 (protein, scFv sequence) scFv: QVQLQQGGAGLLKPSETLSLTCGVYGGSFSGYYWSWIRQSPGKGLEWIGEINHSGSANYNPSVKSRVTISVDTSKNQFSLQLSSVTAADTAVYYCARDRAVLTGEGWYFDLWGRGTLVTVSSGILGSGGGGSGGGGSGGGGSSYELTQPPSVSVSPGQTASITCSGDKLGDKYTCWYQQKPGQSPVLVLYEDTKRPSGIPERFSGSNSGNTATLTISRVEAGDEADYYCQLWDSSSDHYVFGSGTKLTVL", "values": [{"measurement": "emission maxima", "setting": "[1]", "result": 550, "unit": "nm"}, {"measurement": "excitation maximum", "setting": "[1]", "result": 515, "unit": "nm"}, {"measurement": "dissociation constants", "setting": "[3]; yeast surface displayed FBP, TO1-2p, in words", "result": "high nanomolar range"}]}]}
